Experimental data as given in the supplement of paper PMC9876800.

Tested on: peptide library, one residue held at a place counted from the S/T acceptor
Test: relative phosphorylation of the sub-library (ratio to the mean residue at this position); higher = residue favoured
In short: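 Each biotinylated degenerate peptide sub-library fixed one residue at one position around a central Ser/Thr and was incubated with a purified recombinant kinase, a human or orthologue construct, in 384-well plates. The 90 min reactions, under kinase-specific conditions, contained 50 μM peptide and 50 μM ATP spiked with γ-32P-ATP. Phosphorylation was read by phosphorimaging spots on streptavidin membranes and quantifying them by densitometry. Relative sub-library phosphorylation expresses each value as a ratio to the mean residue at that position.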

Chain of MAP3K14, construct: aa327-673, human (Q99558 327-673, looked up): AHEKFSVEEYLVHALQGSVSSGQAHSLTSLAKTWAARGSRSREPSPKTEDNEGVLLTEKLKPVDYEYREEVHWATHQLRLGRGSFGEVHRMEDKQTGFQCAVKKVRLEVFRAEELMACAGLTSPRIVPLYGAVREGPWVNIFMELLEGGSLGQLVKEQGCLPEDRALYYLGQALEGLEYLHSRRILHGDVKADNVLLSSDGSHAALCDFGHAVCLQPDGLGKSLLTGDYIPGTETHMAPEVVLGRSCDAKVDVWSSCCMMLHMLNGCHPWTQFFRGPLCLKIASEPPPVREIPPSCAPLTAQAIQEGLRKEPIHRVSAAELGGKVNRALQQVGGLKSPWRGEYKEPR
Chain of HUNK, construct: Full length, human (P57058 whole entry, looked up): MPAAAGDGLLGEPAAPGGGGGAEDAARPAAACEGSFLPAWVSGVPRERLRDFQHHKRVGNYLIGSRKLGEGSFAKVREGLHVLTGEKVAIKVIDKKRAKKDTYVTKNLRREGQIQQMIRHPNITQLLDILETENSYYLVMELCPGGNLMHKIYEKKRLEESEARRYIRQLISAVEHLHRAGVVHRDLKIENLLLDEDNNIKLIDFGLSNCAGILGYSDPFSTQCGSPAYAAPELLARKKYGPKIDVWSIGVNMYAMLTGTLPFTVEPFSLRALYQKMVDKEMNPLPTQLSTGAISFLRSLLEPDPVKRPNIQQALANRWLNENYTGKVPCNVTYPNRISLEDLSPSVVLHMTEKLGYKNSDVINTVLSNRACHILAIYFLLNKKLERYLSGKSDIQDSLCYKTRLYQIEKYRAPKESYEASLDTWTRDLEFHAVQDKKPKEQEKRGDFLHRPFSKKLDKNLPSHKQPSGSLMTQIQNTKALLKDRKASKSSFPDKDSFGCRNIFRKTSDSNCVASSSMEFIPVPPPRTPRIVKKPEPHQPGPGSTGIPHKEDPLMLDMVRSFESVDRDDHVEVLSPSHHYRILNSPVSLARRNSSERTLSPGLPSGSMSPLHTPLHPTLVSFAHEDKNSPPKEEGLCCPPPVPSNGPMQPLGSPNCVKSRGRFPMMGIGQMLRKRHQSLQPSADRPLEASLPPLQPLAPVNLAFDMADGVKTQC
Chain of MAP2K5, construct: Full length, human (Q13163 whole entry, looked up): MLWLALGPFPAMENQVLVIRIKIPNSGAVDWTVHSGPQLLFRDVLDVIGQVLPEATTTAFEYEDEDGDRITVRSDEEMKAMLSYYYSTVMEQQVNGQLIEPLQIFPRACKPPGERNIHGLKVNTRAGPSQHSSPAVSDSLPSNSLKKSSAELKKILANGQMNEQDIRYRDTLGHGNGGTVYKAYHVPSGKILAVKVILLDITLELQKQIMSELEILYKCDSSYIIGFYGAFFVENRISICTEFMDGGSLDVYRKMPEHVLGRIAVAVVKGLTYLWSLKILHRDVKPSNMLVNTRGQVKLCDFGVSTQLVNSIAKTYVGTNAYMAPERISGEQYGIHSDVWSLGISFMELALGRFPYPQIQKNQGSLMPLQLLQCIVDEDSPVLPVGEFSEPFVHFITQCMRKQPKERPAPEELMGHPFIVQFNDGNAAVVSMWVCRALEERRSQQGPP
Chain of HASPIN, construct: aa452-798, human (Q8TF76 452-798, looked up): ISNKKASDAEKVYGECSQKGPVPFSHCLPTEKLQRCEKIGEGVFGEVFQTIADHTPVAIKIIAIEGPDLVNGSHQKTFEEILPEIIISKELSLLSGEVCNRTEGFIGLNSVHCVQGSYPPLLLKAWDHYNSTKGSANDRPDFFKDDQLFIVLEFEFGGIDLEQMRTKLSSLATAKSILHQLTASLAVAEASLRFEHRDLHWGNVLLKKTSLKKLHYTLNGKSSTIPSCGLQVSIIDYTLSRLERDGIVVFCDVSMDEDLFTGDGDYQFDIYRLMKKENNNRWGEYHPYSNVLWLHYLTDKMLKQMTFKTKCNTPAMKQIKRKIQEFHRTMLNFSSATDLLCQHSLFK

HASPIN, construct: aa452-798, human (from UniProt Q8TF76)
relative phosphorylation
Details | at +1 | at +2 | at +3 | at +4 | at -1 | at -2 | at -3 | at -4 | at -5
A fixed | 0.379 | 1.04 | 0.824 | 0.822 | 0.515 | 2.18 | 0.883 | 0.899 | 0.836
D fixed | 0.166 | 0.469 | 0.344 | 0.766 | 0.155 | 0.679 | 0.544 | 0.634 | 0.517
E fixed | 0.161 | 0.359 | 0.28 | 0.404 | 0.158 | 0.483 | 0.577 | 0.767 | 0.526
F fixed | 0.587 | 0.877 | 0.984 | 0.829 | 0.354 | 0.76 | 0.749 | 0.936 | 0.812
G fixed | 0.467 | 0.751 | 1.02 | 1.03 | 0.615 | 1.17 | 1.1 | 0.985 | 0.887
H fixed | 0.682 | 1.36 | 1.09 | 1.14 | 0.606 | 0.783 | 1.11 | 0.964 | 1.01
I fixed | 0.779 | 0.69 | 0.652 | 0.819 | 0.286 | 0.734 | 0.693 | 0.844 | 2.68
K fixed | 5.48 | 1.95 | 1.81 | 2.09 | 1.5 | 1.39 | 1.92 | 1.39 | 1.23
L fixed | 0.621 | 0.783 | 0.797 | 0.749 | 0.294 | 0.464 | 0.694 | 1.54 | 0.645
M fixed | 0.766 | 1.56 | 0.782 | 1.01 | 0.42 | 0.47 | 0.644 | 0.933 | 0.777
N fixed | 0.295 | 0.762 | 0.801 | 0.86 | 0.427 | 0.737 | 0.941 | 0.738 | 0.763
P fixed | 0.807 | 0.559 | 0.714 | 0.801 | 0.493 | 1.83 | 1.12 | 0.987 | 1.32
Q fixed | 0.469 | 1.19 | 0.819 | 1 | 0.591 | 0.672 | 0.834 | 0.974 | 0.722
R fixed | 2.67 | 1.78 | 3.05 | 1.65 | 9.3 | 1.83 | 2.79 | 1.57 | 1.33
V fixed | 0.622 | 0.657 | 0.731 | 0.714 | 0.285 | 1.27 | 0.768 | 0.951 | 0.982
W fixed | 0.51 | 1.25 | 1.09 | 1.33 | 0.313 | 0.749 | 0.82 | 0.918 | 0.922
Y fixed | 1.54 | 0.971 | 1.21 | 0.979 | 0.683 | 0.809 | 0.807 | 0.969 | 1.05
pThr fixed | 0.315 | 0.44 | 0.466 | 0.648 | 0.379 | 1.23 | 1.14 | 0.928 | 0.991
pTyr fixed | 0.322 | 0.359 | 0.492 | 0.589 | 0.582 | 0.966 | 1.09 | 0.743 | 1.01

HUNK, construct: Full length, human (from UniProt P57058)
relative phosphorylation
Details | at +1 | at +2 | at +3 | at +4 | at -1 | at -2 | at -3 | at -4 | at -5
A fixed | 1.03 | 1.5 | 0.679 | 0.686 | 1.56 | 1.41 | 1.16 | 1.13 | 1.27
D fixed | 0.435 | 0.428 | 2.19 | 1.05 | 0.948 | 0.95 | 0.524 | 0.889 | 0.9
E fixed | 0.527 | 0.447 | 1.01 | 0.957 | 1.04 | 0.921 | 0.728 | 1.19 | 0.832
F fixed | 1.58 | 0.842 | 1.37 | 1.85 | 0.461 | 0.831 | 0.927 | 0.798 | 0.759
G fixed | 0.784 | 0.624 | 0.66 | 0.751 | 1.03 | 0.896 | 1.07 | 1.15 | 1.37
H fixed | 0.814 | 1.65 | 1.04 | 0.811 | 0.795 | 1.05 | 1.97 | 0.947 | 1.09
I fixed | 0.538 | 1.44 | 0.61 | 1.72 | 0.555 | 1 | 0.798 | 0.942 | 0.953
K fixed | 0.713 | 0.591 | 0.493 | 0.609 | 1.38 | 0.725 | 0.726 | 1.02 | 1.23
L fixed | 0.882 | 0.747 | 0.704 | 1.39 | 0.571 | 0.867 | 1.19 | 1.39 | 0.947
M fixed | 1.81 | 0.549 | 0.945 | 1.71 | 1.01 | 0.946 | 1.3 | 1.04 | 0.811
N fixed | 0.794 | 0.829 | 1.85 | 0.873 | 1.11 | 1.28 | 0.675 | 0.993 | 1.03
P fixed | 0.301 | 0.355 | 0.287 | 0.64 | 1.06 | 0.395 | 0.961 | 0.786 | 0.917
Q fixed | 1.73 | 0.582 | 0.661 | 0.712 | 1.17 | 1.3 | 0.749 | 0.797 | 0.725
R fixed | 1.01 | 0.814 | 0.766 | 0.758 | 2.41 | 1.44 | 1.35 | 0.963 | 1.3
V fixed | 0.701 | 2.16 | 0.599 | 0.735 | 0.576 | 1.25 | 0.559 | 0.833 | 0.842
W fixed | 1.49 | 1.7 | 2.1 | 0.853 | 0.626 | 0.916 | 0.991 | 1.15 | 0.943
Y fixed | 1.87 | 1.74 | 1.03 | 0.903 | 0.694 | 0.806 | 1.32 | 0.987 | 1.08
pThr fixed | 1.16 | 1.58 | 0.532 | 0.85 | 0.689 | 1.65 | 0.827 | 0.821 | 0.727
pTyr fixed | 0.97 | 1.71 | 0.92 | 0.972 | 0.873 | 0.669 | 0.897 | 0.783 | 0.806

MAP2K5, construct: Full length, human (from UniProt Q13163)
relative phosphorylation
Details | at +1 | at +2 | at +3 | at +4 | at -1 | at -2 | at -3 | at -4 | at -5
A fixed | 0.719 | 0.806 | 0.742 | 0.876 | 0.985 | 1.01 | 1.02 | 0.982 | 0.924
D fixed | 0.453 | 0.477 | 0.592 | 0.598 | 0.918 | 0.931 | 0.998 | 0.992 | 0.898
E fixed | 0.47 | 0.454 | 0.583 | 0.62 | 0.73 | 0.732 | 0.889 | 0.982 | 0.828
F fixed | 1.12 | 0.912 | 1.29 | 0.97 | 0.899 | 1.75 | 0.962 | 1.08 | 1.2
G fixed | 0.703 | 0.748 | 0.949 | 0.998 | 1.19 | 0.942 | 1.16 | 1.08 | 0.963
H fixed | 0.886 | 2.3 | 1.1 | 1.07 | 1.15 | 1.01 | 1.02 | 1.09 | 1.17
I fixed | 1.52 | 0.717 | 0.919 | 0.898 | 0.706 | 0.696 | 0.744 | 0.74 | 0.856
K fixed | 0.872 | 1.29 | 1.14 | 1.49 | 1.14 | 0.83 | 1.08 | 1.11 | 1.09
L fixed | 1.2 | 0.711 | 1.01 | 0.836 | 1.07 | 0.841 | 0.846 | 0.783 | 0.884
M fixed | 1.62 | 0.928 | 1.06 | 0.956 | 1.11 | 0.866 | 0.943 | 0.944 | 0.889
N fixed | 0.836 | 0.935 | 0.963 | 0.891 | 1.08 | 0.855 | 0.906 | 0.947 | 0.894
P fixed | 0.636 | 0.604 | 0.714 | 1.06 | 0.809 | 0.901 | 1.07 | 0.902 | 0.894
Q fixed | 0.839 | 0.918 | 0.854 | 1.09 | 0.969 | 0.841 | 0.817 | 0.834 | 0.828
R fixed | 1.1 | 1.53 | 1.36 | 1.43 | 1.5 | 1.23 | 1.54 | 1.24 | 1.19
V fixed | 1.2 | 0.736 | 0.781 | 0.774 | 0.711 | 0.771 | 0.684 | 0.791 | 0.843
W fixed | 1.7 | 1.36 | 1.64 | 1.24 | 0.875 | 1.37 | 1.18 | 1.38 | 1.34
Y fixed | 1.14 | 1.57 | 1.3 | 1.21 | 1.17 | 1.43 | 1.14 | 1.12 | 1.32
pThr fixed | 0.902 | 0.728 | 0.733 | 0.792 | 0.844 | 1.07 | 1.34 | 1.17 | 1.29
pTyr fixed | 0.576 | 0.485 | 0.723 | 0.57 | 0.974 | 1.3 | 1.08 | 0.835 | 1.08

MAP3K14, construct: aa327-673, human (from UniProt Q99558)
relative phosphorylation
Details | at +1 | at +2 | at +3 | at +4 | at -1 | at -2 | at -3 | at -4 | at -5
A fixed | 0.858 | 0.835 | 0.87 | 0.88 | 0.975 | 1.06 | 0.893 | 1 | 0.972
D fixed | 0.726 | 0.707 | 0.858 | 0.865 | 0.8 | 0.709 | 0.687 | 0.783 | 0.764
E fixed | 0.775 | 0.682 | 0.769 | 0.786 | 0.755 | 0.73 | 0.705 | 0.877 | 0.735
F fixed | 1.21 | 0.85 | 0.978 | 0.96 | 0.787 | 0.923 | 0.751 | 0.89 | 1.04
G fixed | 0.867 | 0.83 | 0.956 | 1.04 | 1.09 | 1.01 | 0.925 | 1.02 | 0.917
H fixed | 0.973 | 1.15 | 1.11 | 1.04 | 1.16 | 1.08 | 1.08 | 1.06 | 1.05
I fixed | 1 | 0.886 | 0.795 | 0.924 | 0.66 | 0.713 | 0.64 | 0.804 | 0.879
K fixed | 1.08 | 1.68 | 1.36 | 1.36 | 1.49 | 1.19 | 1.92 | 1.53 | 1.38
L fixed | 1.09 | 0.908 | 0.971 | 1.02 | 0.874 | 0.78 | 0.731 | 0.896 | 1.23
M fixed | 1.26 | 0.844 | 0.875 | 0.962 | 0.966 | 1.02 | 0.753 | 0.977 | 1.04
N fixed | 0.909 | 0.978 | 1.18 | 1.09 | 1.19 | 0.954 | 0.904 | 1.02 | 0.911
P fixed | 0.69 | 0.817 | 0.935 | 1.25 | 1.02 | 0.763 | 0.843 | 0.924 | 1.05
Q fixed | 1.09 | 0.918 | 0.979 | 1.06 | 1.04 | 1.18 | 0.97 | 1.03 | 0.921
R fixed | 1.2 | 2.11 | 1.49 | 1.23 | 1.63 | 1.94 | 2.81 | 1.49 | 1.43
V fixed | 0.988 | 0.892 | 0.81 | 0.866 | 0.687 | 0.76 | 0.652 | 0.843 | 0.808
W fixed | 1.21 | 0.909 | 1.09 | 0.827 | 0.814 | 1.12 | 0.939 | 0.938 | 0.945
Y fixed | 1.06 | 0.998 | 0.983 | 0.841 | 1.07 | 1.07 | 0.793 | 0.931 | 0.921
pThr fixed | 0.918 | 0.837 | 0.843 | 0.923 | 0.678 | 0.769 | 0.827 | 0.899 | 0.877
pTyr fixed | 0.869 | 0.849 | 0.889 | 0.774 | 0.829 | 0.824 | 1.01 | 0.941 | 0.985
